T1: CBL TKBD-LHR-RING (2-436), unphosphorylated (Homo sapiens, UniProt P22681)
T1 construct: GST (N, cleaved yes); made in house; host or cells: E. coli BL-21
T1 sequence (P22681 2-436): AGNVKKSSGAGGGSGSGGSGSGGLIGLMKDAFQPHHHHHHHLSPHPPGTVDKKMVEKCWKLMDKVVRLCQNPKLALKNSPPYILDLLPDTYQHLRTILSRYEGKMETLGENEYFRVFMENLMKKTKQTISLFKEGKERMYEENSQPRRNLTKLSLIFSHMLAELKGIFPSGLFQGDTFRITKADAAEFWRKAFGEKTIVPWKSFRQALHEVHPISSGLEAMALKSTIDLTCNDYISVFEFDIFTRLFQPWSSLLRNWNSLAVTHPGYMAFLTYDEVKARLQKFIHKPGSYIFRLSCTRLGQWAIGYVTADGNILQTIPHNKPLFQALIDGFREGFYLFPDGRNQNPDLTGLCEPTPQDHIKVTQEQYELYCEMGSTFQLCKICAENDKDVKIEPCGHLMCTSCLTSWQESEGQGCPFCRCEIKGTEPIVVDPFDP

T2: CBL TKBD (Homo sapiens, UniProt P22681)
T2 construct: with CBL (47-357) cloned in frame into MCS2 of the same pETDuet-1 vector; made in house
T2 sequence (P22681 47-357): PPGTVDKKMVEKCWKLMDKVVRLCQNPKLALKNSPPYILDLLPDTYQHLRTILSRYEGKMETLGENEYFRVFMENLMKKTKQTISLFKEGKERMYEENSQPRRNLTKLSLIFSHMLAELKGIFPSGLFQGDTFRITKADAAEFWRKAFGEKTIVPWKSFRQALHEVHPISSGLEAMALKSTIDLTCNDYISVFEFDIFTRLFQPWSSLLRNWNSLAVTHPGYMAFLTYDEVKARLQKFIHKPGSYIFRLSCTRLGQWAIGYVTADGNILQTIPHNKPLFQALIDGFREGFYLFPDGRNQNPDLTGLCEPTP


Columns and labels:
[1] = target: T1, CBL TKBD-LHR-RING (2-436), unphosphorylated; assay: In vitro ubiquitination assay, anti-ubiquitin immunoblot; format: biochemical; settings: anti-Ub immunoblot and E3LITE (FIGS. 11A,B, 10B-D)
Description: Given that binding of SLAP2 and the LHR-RING would be mutually exclusive (FIG. 8C), we reasoned that binding of SLAP2 to CBL could displace the LHR-RING, thereby promoting the catalytically competent conformation. To test this hypothesis, an in vitro ubiquitination assay in which E3 ligase activity is detected by a smear at high molecular weight on an anti-ubiquitin (Ub) immunoblot was employed. […] To further compare and quantify CBL ubiquitin ligase activity, a chemiluminescence based assay which measures the total amount of polyubiquitylated products formed in an in vitro reaction was used. In this assay, production of polyubiquitylated proteins increased upon addition of SLAP2 or pSLAP2 to CBL, compared to CBL alone (FIG. 9C and FIG. 10A).
In vitro ubiquitination reactions were prepared with 20 pmol of CBL or pCBL and 60 pmol of hSLAP2 or phosphorylated hSLAP2 (pSLAP2) for both WT and mutants. Reagents were thawed and reactions prepared on ice. CBL and SLAP2 were mixed in PBS (with 5 mM βME, 5 mM caproic acid, 0.5 mM PMSF, and 0.5 mM Na3VO4) at rt for 5-10 min before addition of master mix (42 pmol E1 (UBE1, Boston Biochem or Ubiquitin-Proteasome Biotechnologies), 0.1 µmol E2 (UbcH5b/UBE2D2, Boston Biochem #E2-622), […], and 11.6 µmol ubiquitin (Boston Biochem #U-100H) in reaction buffer (0.2 M Tris pH 7.5, 10 mM MgCl2, 2 mM DTT). Reactions were incubated at 30° C. shaking at 500-700 rpm for 60-110 minutes and terminated by addition of SDS 2X loading buffer and boiling for 5-10 minutes. Equal volumes of each reaction were loaded on 12.5% SDS-PAGE gel, transferred to PVDF membrane, and immunoblotted for ubiquitin as per standard protocols (anti-ubiquitin antibody P4G7, BioLegend #838701, 1:1000; anti-mouse IgG HRP-linked antibody, Cell Signaling Technology #7076, 1:10000; Western Lightning Plus ECL, Perkin Elmer).

CBL TKBD [2] = assay: Co-purification of CBL TKBD with Trx-His-SLAP2/SLAP (Duet co-expression, Ni-NTA, SDS-PAGE); format: binding; settings: low salt concentration (0.15 M NaCl)
Description: (§1) To validate the CBL/SLAP2 binding interface, a series of mutants in a Duet co-expression vector system was generated for co-purification trials. The SLAP2 sequence was preceded by thioredoxin (Trx) and His-tag fusion proteins to allow co-purification of CBL TKBD that was bound to Trx-His-SLAP2 during the initial affinity chromatography purification step. Surface residues deemed to be important to the CBL/SLAP2 interface, but not CBL function or folding, were mutated to disrupt CBL/SLAP2 binding (FIG. 5C and FIG. 6). In our structure, SLAP2 Gly240 locates close to CBL Met269 and Ala270, such that mutation to a bulky Arg residue (G240R) could cause sterical constraints. Similarly, SLAP2 Leu241 is situated in a hydrophobic cleft composed of CBL Ala223, Trp258, and Val263; mutation to Arg (L241R) was predicted to disturb this binding pocket. Mutation of CBL Ala223 to Arg (A223R) would likewise disrupt this pocket, with CBL/SLAP2 double mutant A223R/L241R predicted to drastically disturb binding through sterical constraints and charge repulsion. (For clarity, CBL mutations herein are indicated in italics, SLAP2 in regular font.) Similarly, single or double mutation of CBL Ser226 or SLAP2 Ser244, whose side chain hydroxyl groups are in close proximity to one another, to charged Glu residues (S226E and S244E) was anticipated to interfere with CBL/SLAP2 binding. Finally, given that SLAP2 binds CBL as an α-helix, mutation of Leu245, located in the center of this α-helix, to proline (L245P) was expected to interrupt the helical structure and thus prevent SLAP2 binding. […] However, double mutation of the CBL/SLAP2 interface (A223R/L241R and S226E/S244E; FIG. 5D, lower panel) was not tolerated, even at low salt concentration.
(§2) For co-purification of CBL and SLAP2/SLAP, Duet-His-hSLAP2-CBL 29-261 Δ198-229 and 29-254 Δ198-229, Duet-His-Δlinker-hSLAP2-CBL WT and point mutants, and Duet-His-mSLAP-CBL WT and point mutants were overexpressed in E. coli BL-21 as above or TKB1 competent cells (Stratagene) as per manufacturer’s instructions, and cells harvested as above (except 100 mL of LB, overnight at 16-18° C., and 0.35-0.5 mM IPTG induction). Cell pellets were resuspended in either high or low salt (as for high salt except 25 mM HEPEs pH 7.5, 150 mM NaCl) lysis buffer and purified as above on Ni-NTA agarose (Qiagen) with wash buffer (25 mM HEPEs pH 7.5, 150 mM NaCl, 2% glycerol, 20 mM imidazole, 10 mM βME). Bead slurry was mixed with SDS 2X loading buffer (125 mM Tris pH 6.8, 4% SDS, 20% glycerol, 0.715 M βME, bromophenol blue), boiled, and analyzed by 10 or 12.5% SDS-PAGE, stained with Coomassie blue.

CBL TKBD [3] = target: T2, CBL TKBD; assay: as above; format: binding; settings: conditions where SLAP2 was tyrosine phosphorylated (TKB1), low salt
Description: as §1, §2

| Molecule | stimulation/activation of CBL ubiquitination activity by SLAP2 mutants versus WT [1] | CBL TKBD co-purification (CBL TKBD [2]) | CBL TKBD co-purification (CBL TKBD [3]) |
| --- | --- | --- | --- |
| SLAP2 R242A: SLAP2 mutant in the SLAP2/SLAP2 interface (protein, left off: large carriers; small tags and cut ends, SLAP2 mutant in the SLAP2/SLAP2 interface) EAERSKATAVALGSFPAGGPAELSLRLGEPLTIVSEDGDWWTVLSEVSGREYNIPSVHVAKVSHGWLYEGLSREKAEELLLLPGNPGGAFLIRESQTRRGSYSLSVRLSRPASWDRIRHYRIHCLDNGWLYISPRLTFPSLQALVDHYSELADDICCLLKEPCVLQRAGPLPGKDIPLPVTVQRTPLNWKELDSSLLFSEAATGEESLLSEGLAESLSFYISLNDEAVSLDDA | did not alter SLAP2 or pSLAP2 activation of CBL | did not significantly impact co-purification of CBL | – |
| SLAP2 S246/250E: SLAP2 double mutant in the SLAP2/SLAP2 interface (protein, left off: large carriers; small tags and cut ends, SLAP2 double mutant in the SLAP2/SLAP2 interface) EAERSKATAVALGSFPAGGPAELSLRLGEPLTIVSEDGDWWTVLSEVSGREYNIPSVHVAKVSHGWLYEGLSREKAEELLLLPGNPGGAFLIRESQTRRGSYSLSVRLSRPASWDRIRHYRIHCLDNGWLYISPRLTFPSLQALVDHYSELADDICCLLKEPCVLQRAGPLPGKDIPLPVTVQRTPLNWKELDSSLLFSEAATGEESLLSEGLRESLEFYIELNDEAVSLDDA | did not alter SLAP2 or pSLAP2 activation of CBL | did not significantly impact co-purification of CBL | – |
| SLAP2 Y248F: SLAP2 Tyr248 to Phe mutant, expressed under phosphorylating conditions (protein, left off: large carriers; small tags and cut ends, SLAP2 Tyr248 to Phe mutant, expressed under phosphorylating conditions) EAERSKATAVALGSFPAGGPAELSLRLGEPLTIVSEDGDWWTVLSEVSGREYNIPSVHVAKVSHGWLYEGLSREKAEELLLLPGNPGGAFLIRESQTRRGSYSLSVRLSRPASWDRIRHYRIHCLDNGWLYISPRLTFPSLQALVDHYSELADDICCLLKEPCVLQRAGPLPGKDIPLPVTVQRTPLNWKELDSSLLFSEAATGEESLLSEGLRESLSFFISLNDEAVSLDDA | – | – | co-purified |
| SLAP2 I249W: SLAP2 mutant in the SLAP2/SLAP2 interface (protein, left off: large carriers; small tags and cut ends, SLAP2 mutant in the SLAP2/SLAP2 interface) EAERSKATAVALGSFPAGGPAELSLRLGEPLTIVSEDGDWWTVLSEVSGREYNIPSVHVAKVSHGWLYEGLSREKAEELLLLPGNPGGAFLIRESQTRRGSYSLSVRLSRPASWDRIRHYRIHCLDNGWLYISPRLTFPSLQALVDHYSELADDICCLLKEPCVLQRAGPLPGKDIPLPVTVQRTPLNWKELDSSLLFSEAATGEESLLSEGLRESLSFYWSLNDEAVSLDDA | did not alter SLAP2 or pSLAP2 activation of CBL | did not significantly impact co-purification of CBL | – |
| Phosphorylated SLAP2 L241R: phosphorylated SLAP2 point mutant L241R at CBL/SLAP2 interface (protein, UniProt Q9H6Q3 2-261, looked up, variant L241R, tyrosine phosphorylated, phosphorylated SLAP2 point mutant L241R at CBL/SLAP2 interface) Src-like-adapter 2: GSLPSRRKSLPSPSLSSSVQGQGPVTMEAERSKATAVALGSFPAGGPAELSLRLGEPLTIVSEDGDWWTVLSEVSGREYNIPSVHVAKVSHGWLYEGLSREKAEELLLLPGNPGGAFLIRESQTRRGSYSLSVRLSRPASWDRIRHYRIHCLDNGWLYISPRLTFPSLQALVDHYSELADDICCLLKEPCVLQRAGPLPGKDIPLPVTVQRTPLNWKELDSSLLFSEAATGEESLLSEGRRESLSFYISLNDEAVSLDDA | reduced stimulation of CBL ubiquitination activity compared to pSLAP2 WT | – | – |
| Phosphorylated SLAP2 S244E: phosphorylated SLAP2 point mutant S244E at CBL/SLAP2 interface (protein, UniProt Q9H6Q3 2-261, looked up, variant S244E, phosphorylated, phosphorylated SLAP2 point mutant S244E at CBL/SLAP2 interface) Src-like-adapter 2: GSLPSRRKSLPSPSLSSSVQGQGPVTMEAERSKATAVALGSFPAGGPAELSLRLGEPLTIVSEDGDWWTVLSEVSGREYNIPSVHVAKVSHGWLYEGLSREKAEELLLLPGNPGGAFLIRESQTRRGSYSLSVRLSRPASWDRIRHYRIHCLDNGWLYISPRLTFPSLQALVDHYSELADDICCLLKEPCVLQRAGPLPGKDIPLPVTVQRTPLNWKELDSSLLFSEAATGEESLLSEGLREELSFYISLNDEAVSLDDA | less stimulation of CBL ubiquitination activity than pSLAP2 WT | – | – |

Source: US20230212239A1, “INHIBITORS OF CBL AUTOINHIBITION AND RELATED METHODS” (THE HOSPITAL FOR SICK CHILDREN, priority 2020, published 2023)
